# Square brackets hold non-standard residues; d marks the D form. Ends that are not written are not given here. Peptide text beside a SMILES is read from it. Ahx = NCCCCCC(=O)O
# T1: rat pancreatic islet (wild type) GIP-receptor stably expressed on CHO-K1 cells (rat, UniProt P43219 19-455)
# T1 sequence (looked up): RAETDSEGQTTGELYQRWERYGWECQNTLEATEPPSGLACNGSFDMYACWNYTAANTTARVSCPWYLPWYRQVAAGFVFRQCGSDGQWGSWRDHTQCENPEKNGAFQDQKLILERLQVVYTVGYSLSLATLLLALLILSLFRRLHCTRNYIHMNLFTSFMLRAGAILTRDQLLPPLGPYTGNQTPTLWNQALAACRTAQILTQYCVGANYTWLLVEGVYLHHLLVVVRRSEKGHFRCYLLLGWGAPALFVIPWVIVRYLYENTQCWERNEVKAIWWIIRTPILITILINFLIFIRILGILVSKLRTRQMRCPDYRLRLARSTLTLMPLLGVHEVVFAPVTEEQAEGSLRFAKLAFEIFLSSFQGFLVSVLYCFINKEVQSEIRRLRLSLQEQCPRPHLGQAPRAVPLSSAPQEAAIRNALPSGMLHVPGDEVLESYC
# What was measured:
# purified kidney DPIV = molecular target: T2, purified kidney DPIV (Sus scrofa, UniProt P22411); assay: Determination of DPIV resistance by MALDI-TOF mass spectrometry; type: in vitro ADME; settings: for half-life: read-out: half life after incubation with DP IV
# T2 construct: The hydrolysis of peptide analogues by purified kidney DPIV was studied as described previously [12]; from tissue; host or cells: kidney
# Method: (§1) The hydrolysis of peptide analogues by purified kidney DPIV was studied as described previously. […] Samples were removed from the incubation mixture and prepared for MALDI-TOF mass spectrometry, as described in Pauly, […]., Pederson, R. A., and Demuth, H. U.
# [1] = molecular target: T3, DPIV (dipeptidyl peptidase IV) (Sus scrofa, UniProt P22411); assay: as above; type: in vitro ADME; settings: purified kidney DPIV, 0.04 M Tris buffer pH 7.6, up to 24 h, MALDI-TOF MS; read-out: half life after incubation with DP IV
# T3 construct: The hydrolysis of peptide analogues by purified kidney DPIV was studied as described previously [12]; from tissue; host or cells: kidney
# Method: as §1
# [2] = molecular target: T1, rat pancreatic islet (wild type) …; assay: cell-based or functional assay
# [3] = molecular target: T1, rat pancreatic islet (wild type) …; assay: displacement of 125I-GIP from CHO-K1 cells transfected with rat GIP receptor, 20 µM peptide
# Method: (§2) Cells were cultured in DMEM/F12, supplemented with 10% newborn calf serum, 50 units/ml penicillin G, and 50 μg/ml streptomycin (Culture media and antibiotics from Gibco BRL, Life Technologies). Cells were grown in 75 cm² flasks until 80-90% confluent, when they were split and seeded onto 24 well plates at a density of 50,000 cells/well. Experiments were carried out 48 h later.
# (§3) Binding studies using ¹²⁵I-labeled spGIP₁₋₄₂, purified by high performance liquid chromatography (HPLC), were performed essentially as described previously-[21]. wtGIP-R1 Cells (1-5×10⁵/well) were washed twice at 4° C. in binding buffer (BB), consisting of DMEM/F12 (GIBCO), 15 mM HEPES, 0.1% bovine serum albumin (BSA), 1% Trasylol (aprotinin; Bayer), pH 7.4. They were incubated for 12-16 h at 4° C. with ¹²⁵I-spGIP (50,000 cpm) in the presence or absence of unlabeled GIP₁₋₄₂ or analogue. Following incubation, cells were washed twice with ice cold buffer, solubilized with 0.1 M NaOH (1 ml), and transferred to culture tubes for counting of cell-associated radioactivity. Nonspecific binding was defined as that measured in the presence of 1 μM GIP₁₋₄₂ or GIP₁₋₃₀, and specific binding expressed as % of binding in the absence of competitor (% B/Bo).
# [4] = molecular target: T1, rat pancreatic islet (wild type) …; assay: competition with 125I-GIP on CHO-K1 cells transfected with rat GIP receptor
# Method: as §2, §3
# [5] = purified kidney DPIV, 0.04 M Tris buffer pH 7.6, up to 24 h, MALDI-TOF MS
# T3 sequence (P22411 whole entry): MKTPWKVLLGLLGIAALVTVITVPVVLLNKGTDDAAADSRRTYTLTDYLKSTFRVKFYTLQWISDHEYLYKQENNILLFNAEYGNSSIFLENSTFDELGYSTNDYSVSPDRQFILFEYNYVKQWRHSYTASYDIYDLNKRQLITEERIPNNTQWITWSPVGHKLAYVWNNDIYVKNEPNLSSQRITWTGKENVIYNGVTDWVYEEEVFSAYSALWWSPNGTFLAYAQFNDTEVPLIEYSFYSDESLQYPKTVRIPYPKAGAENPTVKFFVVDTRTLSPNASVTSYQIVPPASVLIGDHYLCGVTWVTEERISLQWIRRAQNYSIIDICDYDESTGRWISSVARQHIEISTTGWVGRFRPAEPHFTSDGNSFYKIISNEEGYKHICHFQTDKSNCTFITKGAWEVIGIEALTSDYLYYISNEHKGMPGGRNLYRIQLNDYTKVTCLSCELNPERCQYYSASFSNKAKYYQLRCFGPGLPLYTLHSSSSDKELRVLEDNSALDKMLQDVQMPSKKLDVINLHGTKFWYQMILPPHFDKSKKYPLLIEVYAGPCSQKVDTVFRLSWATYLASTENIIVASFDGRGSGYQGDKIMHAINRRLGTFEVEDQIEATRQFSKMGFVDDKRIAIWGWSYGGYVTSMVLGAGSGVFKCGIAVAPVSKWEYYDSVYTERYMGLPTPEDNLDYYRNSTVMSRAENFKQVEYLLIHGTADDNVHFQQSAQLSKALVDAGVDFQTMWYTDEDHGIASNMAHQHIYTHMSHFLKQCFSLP
# T2 sequence (P22411 whole entry): as above
molecule,measurement,setting,value
YAPGTFISDYSIAM [Pro^3-GIP1-14],half life after incubation with DP IV,purified kidney DPIV; [5],stable
YVEGTFISDYSIAMDKIRQQDFVNWLLAQK-NH2 [Val^2-GIP1-30a],half-life,[1],4.97 ± 1.54 h
CC[C@H](C)[C@H](NC(=O)[C@H](CO)NC(=O)[C@H](Cc1ccc(O)cc1)NC(=O)[C@H](CC(=O)O)NC(=O)[C@H](CO)NC(=O)[C@@H](NC(=O)[C@H](Cc1ccccc1)NC(=O)[C@@H](NC(=O)CNC(=O)[C@H](CCC(=O)O)NC(=O)[C@H](C)NC(=O)[C@@H](N)Cc1ccc(O)cc1)[C@@H](C)O)[C@@H](C)CC)C(=O)N[C@@H](C)C(=O)N[C@@H](CCSC)C(=O)N[C@@H](CC(=O)O)C(=O)O [GIP1-15],half-life,purified kidney DPIV; [5],0.583 ± 0.0867 h
CC[C@H](C)[C@H](NC(=O)[C@H](CO)NC(=O)[C@H](Cc1ccc(O)cc1)NC(=O)[C@H](CC(=O)O)NC(=O)[C@H](CO)NC(=O)[C@@H](NC(=O)[C@H](Cc1ccccc1)NC(=O)[C@@H](NC(=O)CNC(=O)[C@H](CCC(=O)O)NC(=O)[C@@H](C)NC(=O)[C@@H](N)Cc1ccc(O)cc1)[C@@H](C)O)[C@@H](C)CC)C(=O)N[C@@H](C)C(=O)N[C@@H](CCSC)C(=O)O [D-Ala^2-GIP1-14],half life after incubation with DP IV,purified kidney DPIV; [5],stable
YSEGTFISDYSIAMDKIRQQDFVNWLLAQK-NH2 [Ser^2-GIP1-30a],half-life,[1],2.28 ± 0.205 h
YAPGTF-NH2 [Pro3-GIP1-6a],half life after incubation with DP IV,purified kidney DPIV; [5],stable
"D-Ala^2-GIP1-30a: GIP1-30 analog, N-terminal sequence Tyr-D-Ala-Glu-Gly (Y[dA]EGTFISDYSIAMDKIRQQDFVNWLLAQK-NH2)",half life after incubation with DP IV,purified kidney DPIV; pH 7.6,stable
YVEGTF-NH2 [Val^2-GIP1-6a],half life after incubation with DP IV,purified kidney DPIV; [5],Not detectable
YGEGTF-NH2 [Gly^2-GIP1-6a],half life after incubation with DP IV,purified kidney DPIV; [5],Not detectable^b
"Tyr-Ala-Ψ(CH2NH2)-Glu-Gly-Thr-Phe-Ile-Ser-Asp-Tyr-Ser-Ile-Ala-Met (EGTFISDYSIAM; not fully specified; N-terminal Tyr-Ala reduced bond, C-amide; printed: Glu-Gly-Thr-Phe-Ile-Ser-Asp-Tyr-Ser-Ile-Ala-Met) [YAψ(CH2NH)-GIP3-14a, GIP1-14 analogue with a reduced peptide bond]",half life after incubation with DP IV,purified kidney DPIV; pH 7.6,stable
YPEGTF-NH2 [Pro^2-GIP1-6a],half-life,[1],> 0.125 h
C[C@@H](NC(=O)[C@@H](N)Cc1ccc(O)cc1)C(=O)N[C@@H](CCC(=O)O)C(=O)NCC(=O)N[C@H](C(=O)N[C@@H](Cc1ccccc1)C(N)=O)[C@@H](C)O [D-Ala^2-GIP1-6a] (H-Y[dA]EGTF-NH2),half life after incubation with DP IV,purified kidney DPIV; [5],stable
YSEGTF-NH2 [Ser^2-GIP1-6a],half-life,purified kidney DPIV; [5],1.32 ± 0.203 h
CC[C@H](C)[C@H](NC(=O)[C@H](CO)NC(=O)[C@H](Cc1ccc(O)cc1)NC(=O)[C@H](CC(=O)O)NC(=O)[C@H](CO)NC(=O)[C@@H](NC(=O)[C@H](Cc1ccccc1)NC(=O)[C@@H](NC(=O)CNC(=O)[C@H](CCC(=O)O)NC(=O)[C@H](C)NC(=O)[C@@H](N)Cc1ccc(O)cc1)[C@@H](C)O)[C@@H](C)CC)C(=O)N[C@@H](C)C(=O)O [GIP1-13],half-life,purified kidney DPIV; [5],0.192 ± 0.0417 h
Tyr-Ala-ψ(CH2NH)-Glu-Gly-Thr-Phe-Ile-Ser-Asp-Tyr-Ser-Ile-Ala-Met-Asp-Lys-Ile-His-Gln-Gln-Asp-Phe-Val-Asn-Trp-Leu-Leu-Ala-Gln-Lys [YAψ(CH2NH)-GIP3-30a],half life after incubation with DP IV,purified kidney DPIV; pH 7.6,stable
"YAEGTFISDYSIAM[Ahx][Ahx]QQDFVNWLLAQK-NH2 (peptide, UniProt P09681 52-65, looked up, N-terminus assumed; SMILES CC[C@H](C)[C@H](NC(=O)[C@H](CO)NC(=O)[C@H](Cc1ccc(O)cc1)NC(=O)[C@H](CC(=O)O)NC(=O)[C@H](CO)NC(=O)[C@@H](NC(=O)[C@H](Cc1ccccc1)NC(=O)[C@@H](NC(=O)CNC(=O)[C@H](CCC(=O)O)NC(=O)[C@H](C)NC(=O)[C@@H](N)Cc1ccc(O)cc1)[C@@H](C)O)[C@@H](C)CC)C(=O)N[C@@H](C)C(=O)N[C@@H](CCSC)C(=O)NCCCCCC(=O)NCCCCCC(=O)N[C@@H](CCC(N)=O)C(=O)N[C@@H](CCC(N)=O)C(=O)N[C@@H](CC(=O)O)C(=O)N[C@@H](Cc1ccccc1)C(=O)N[C@H](C(=O)N[C@@H](CC(N)=O)C(=O)N[C@@H](Cc1c[nH]c2ccccc12)C(=O)N[C@@H](CC(C)C)C(=O)N[C@@H](CC(C)C)C(=O)N[C@@H](C)C(=O)N[C@@H](CCC(N)=O)C(=O)N[C@@H](CCCCN)C(N)=O)C(C)C, range 52-65) [GIP(1-14)(Ahx)2(19-30)NH2]",Max. cAMP (Fold Basal),[2],95.9 fold basal
same,cAMP Production EC50,[2],2510 nM
same,% Displacement at 20 µM,[3],85.8%
same,IC50,[4],2770 nM
"YAEGTFISDYSIAM[Ahx]QQDFVNWLLAQK-NH2 (peptide, UniProt P09681 52-65, looked up, N-terminus assumed; SMILES CC[C@H](C)[C@H](NC(=O)[C@H](CO)NC(=O)[C@H](Cc1ccc(O)cc1)NC(=O)[C@H](CC(=O)O)NC(=O)[C@H](CO)NC(=O)[C@@H](NC(=O)[C@H](Cc1ccccc1)NC(=O)[C@@H](NC(=O)CNC(=O)[C@H](CCC(=O)O)NC(=O)[C@H](C)NC(=O)[C@@H](N)Cc1ccc(O)cc1)[C@@H](C)O)[C@@H](C)CC)C(=O)N[C@@H](C)C(=O)N[C@@H](CCSC)C(=O)NCCCCCC(=O)N[C@@H](CCC(N)=O)C(=O)N[C@@H](CCC(N)=O)C(=O)N[C@@H](CC(=O)O)C(=O)N[C@@H](Cc1ccccc1)C(=O)N[C@H](C(=O)N[C@@H](CC(N)=O)C(=O)N[C@@H](Cc1c[nH]c2ccccc12)C(=O)N[C@@H](CC(C)C)C(=O)N[C@@H](CC(C)C)C(=O)N[C@@H](C)C(=O)N[C@@H](CCC(N)=O)C(=O)N[C@@H](CCCCN)C(N)=O)C(C)C, range 52-65) [GIP(1-14)(Ahx)1(19-30)NH2]",Max. cAMP (Fold Basal),[2],102 fold basal
same,cAMP Production EC50,[2],1410 nM
same,% Displacement at 20 µM,[3],86.1%
same,IC50,[4],2710 nM
"YAEGTFISDYSIAM[Ahx][Ahx][Ahx]QQDFVNWLLAQK-NH2 (peptide, UniProt P09681 52-65, looked up, N-terminus assumed; SMILES CC[C@H](C)[C@H](NC(=O)[C@H](CO)NC(=O)[C@H](Cc1ccc(O)cc1)NC(=O)[C@H](CC(=O)O)NC(=O)[C@H](CO)NC(=O)[C@@H](NC(=O)[C@H](Cc1ccccc1)NC(=O)[C@@H](NC(=O)CNC(=O)[C@H](CCC(=O)O)NC(=O)[C@H](C)NC(=O)[C@@H](N)Cc1ccc(O)cc1)[C@@H](C)O)[C@@H](C)CC)C(=O)N[C@@H](C)C(=O)N[C@@H](CCSC)C(=O)NCCCCCC(=O)NCCCCCC(=O)NCCCCCC(=O)N[C@@H](CCC(N)=O)C(=O)N[C@@H](CCC(N)=O)C(=O)N[C@@H](CC(=O)O)C(=O)N[C@@H](Cc1ccccc1)C(=O)N[C@H](C(=O)N[C@@H](CC(N)=O)C(=O)N[C@@H](Cc1c[nH]c2ccccc12)C(=O)N[C@@H](CC(C)C)C(=O)N[C@@H](CC(C)C)C(=O)N[C@@H](C)C(=O)N[C@@H](CCC(N)=O)C(=O)N[C@@H](CCCCN)C(N)=O)C(C)C, range 52-65; also called GlP(1-14)(Ahx)3(19-30)NH2) [GIP(1-14)(Ahx)3(19-30)NH2]",Max. cAMP (Fold Basal),[2],49.5 fold basal
same,cAMP Production EC50,[2],~20000 nM
same,% Displacement at 20 µM,[3],82.7%
same,IC50,[4],3210 nM

# From US20050137135A1 (priority 2002, published 2005)
